The labels stand for the following.
B1: SAM and SH3 domain-containing protein 1, residues 630 to 700; numbered along this chain, O94885 (parent)
chain: GRPPQPKSVEDLLDRINLKEHMPTFLFNGYEDLDTFKLLEEEDLDELNIRDPEHRAVLLTAVELLQEYDSN

± gives the uncertainty stated by the source.

This series covers variants of B1. Briefly: abundance fitness (aPCA) (normalised: wild type 0, dead -1); higher = more abundant; growth selection in yeast, the domain comes from the species named. The note with it: Homo sapiens.
For the variant GRPPQPKSVEDLLYRINLKEHMPTFLFNGYEDLDTFKLLEEEDLDELNIRDPEHRAVLLTAVELLQEYDSN, the abundance fitness was -0.602 ± 0.069.
Next, GRPPQPKSVEDLLDRINLKEHMPNFLFNGYEDLDTFKLLEEEDLDELNIRDPEHRAVLLTAVELLQEYDSN: -0.314 ± 0.051; GRPPQPKSVEILLDRINLKEHMPTFLFNGYEDLDTFKLLEEEDLDELNIRDPEHRAVLLTAVELLQEYDSN: -1.08 ± 0.11; GRPPQPKSVEKLLDRINLKEHMPTFLFNGYEDLDTFKLLEEEDLDELNIRDPEHRAVLLTAVELLQEYDSN: -0.766 ± 0.088.
Next, GRPPQPKSVEDLLDRINLKEHMPTFLFNGYEDLDTFKLLEEEDLDELNIRDPEHRAVLLTAVELLQEYQSN: -0.262 ± 0.052; GRPPQPKSVEDLLDRINLKEHMPTFLFNGYEDLDTFKLLEEEDLDELNIRDPEHRAVLLTAVELLQEYNSN: -0.289 ± 0.058.
Take GRPPQPKSVEDLLDRINLKEHMPTFLFNGYEDLDTFKLLEEEDLDELNIRDPEHRAVVLTAVELLQEYDSN: the abundance fitness is -0.53 ± 0.06.
Next, GRPPQPKSVEDLLDRINLKEHMPTFLFNGYEDLDTFKLLEEEDLDELNIRDPEHRAVLLTWVELLQEYDSN: -0.287 ± 0.064; GRPPQPKSVEDLLDRINLKEHMPTFLFNGYEDLDTFKLLEEEDLDELNIRDPEHAAVLLTAVELLQEYDSN: -0.9 ± 0.082.
On to DRPPQPKSVEDLLDRINLKEHMPTFLFNGYEDLDTFKLLEEEDLDELNIRDPEHRAVLLTAVELLQEYDSN, for which the abundance fitness amounted to 0.195 ± 0.057.
Next, RRPPQPKSVEDLLDRINLKEHMPTFLFNGYEDLDTFKLLEEEDLDELNIRDPEHRAVLLTAVELLQEYDSN: -0.203 ± 0.07; GRPPQPKSVEDLLDRINLKEHPPTFLFNGYEDLDTFKLLEEEDLDELNIRDPEHRAVLLTAVELLQEYDSN: -0.999 ± 0.087; GRPPQPKSVEDLLDRINLKEHIPTFLFNGYEDLDTFKLLEEEDLDELNIRDPEHRAVLLTAVELLQEYDSN: 0.131 ± 0.039.
On to GRPPQPKSVEDLLDRINLKEHCPTFLFNGYEDLDTFKLLEEEDLDELNIRDPEHRAVLLTAVELLQEYDSN, for which the abundance fitness is -0.135 ± 0.043.
Regarding GRPPQPKSVEDLLDRINLKEHMPTFLFNGYEDLDTFKLLEEEDLDELNIRDPEHRAVLLTAVELLFEYDSN, the abundance fitness is -0.694 ± 0.061.
As to GRPPQPKSVEDLLDRINLKEHMPTFLFNGYEDLDTFKLLEEEDLDELNIRDPEHRAVLLTAVELLPEYDSN, the abundance fitness is -0.673 ± 0.056.
As for GRPPQPKSVEDLLDRINLKEHMPTFLFNGYEDLVTFKLLEEEDLDELNIRDPEHRAVLLTAVELLQEYDSN, the abundance fitness was -0.719 ± 0.055.
Next, GRPPQPKSVEDLLDRINLKEHMPTFLFNGYEDLLTFKLLEEEDLDELNIRDPEHRAVLLTAVELLQEYDSN: -0.67 ± 0.045; GRPPQPKSVEDLLDRINLKEHMPTFLFNGYEDLDVFKLLEEEDLDELNIRDPEHRAVLLTAVELLQEYDSN: -0.492 ± 0.056; GRPPQPKSVEDLLDRINLKEHMPTFLFNGYEDLDGFKLLEEEDLDELNIRDPEHRAVLLTAVELLQEYDSN: -0.442 ± 0.062.
For the variant GRPPQPKSVEDLLDRINLKEHMPTFLFNGYEDLDTFKLLEEEDLDELNIRDPQHRAVLLTAVELLQEYDSN, the abundance fitness is -0.051 ± 0.049.
Take GRPPQPKSVEDLLDRINLKEHMPTFLFNGYEDLDTFKLLEEEDLDELNIRDPIHRAVLLTAVELLQEYDSN: the abundance fitness was -0.542 ± 0.063.
GRPPQPKSVEDLLDRINLKEHMPTFLFNGYEDLDTFKYLEEEDLDELNIRDPEHRAVLLTAVELLQEYDSN: the abundance fitness was -0.117 ± 0.056.
GRRPQPKSVEDLLDRINLKEHMPTFLFNGYEDLDTFKLLEEEDLDELNIRDPEHRAVLLTAVELLQEYDSN: the abundance fitness is -0.302 ± 0.046.
Next, GREPQPKSVEDLLDRINLKEHMPTFLFNGYEDLDTFKLLEEEDLDELNIRDPEHRAVLLTAVELLQEYDSN: 0.04 ± 0.056; GRIPQPKSVEDLLDRINLKEHMPTFLFNGYEDLDTFKLLEEEDLDELNIRDPEHRAVLLTAVELLQEYDSN: 0.035 ± 0.047; GRPPQPKSREDLLDRINLKEHMPTFLFNGYEDLDTFKLLEEEDLDELNIRDPEHRAVLLTAVELLQEYDSN: -0.969 ± 0.084.
For GRPPQPKSVEDLLDRINLKEHMPTFLFNGYEDLDTFKLLEEEDLDELLIRDPEHRAVLLTAVELLQEYDSN, the abundance fitness is -0.741 ± 0.1.
As for GRPPQPKSVEDLLDRINLKEHMPTFLFNGYEDPDTFKLLEEEDLDELNIRDPEHRAVLLTAVELLQEYDSN, the abundance fitness is -0.896 ± 0.095.
Turning to GRPPQPKSVEDLLDRINLKEHMPTFLFNGYEDQDTFKLLEEEDLDELNIRDPEHRAVLLTAVELLQEYDSN, the abundance fitness is -0.73 ± 0.11.
Next, GRPPQPKSVEDLLDRINLKEHMPTFLFNGYEYLDTFKLLEEEDLDELNIRDPEHRAVLLTAVELLQEYDSN: -0.776 ± 0.07.
GRPPQPKSVEDLLDRINLKEHMPTFLFNGYEMLDTFKLLEEEDLDELNIRDPEHRAVLLTAVELLQEYDSN: the abundance fitness is -0.682 ± 0.06.
As to GRPPQPKSVSDLLDRINLKEHMPTFLFNGYEDLDTFKLLEEEDLDELNIRDPEHRAVLLTAVELLQEYDSN, the abundance fitness was -0.423 ± 0.046.
Next, GRPPQPKSVPDLLDRINLKEHMPTFLFNGYEDLDTFKLLEEEDLDELNIRDPEHRAVLLTAVELLQEYDSN: -0.357 ± 0.05; GRPPQPKSVEDLLDRINLKEHMPTFLFNGYEDLDTFKLLEEEDLDELNIRDPEHRAVLLTAVFLLQEYDSN: -0.866 ± 0.08; GRPPQPKSVEDLLDRINLKEHMPTFLFNGYEDLDTFKLLEEEDLDELNIRDPEHRAVLLTAVHLLQEYDSN: -0.075 ± 0.042.
Next, GRPPQPKSVEDLLDRINLKEHMPTFHFNGYEDLDTFKLLEEEDLDELNIRDPEHRAVLLTAVELLQEYDSN: -0.44 ± 0.066; GRPPQPKSVEDLLDRINLKEHMPTFLFNGYEDLDTFKLLEEEDLDELNIRDPEHRAVLLTAVELLQEEDSN: 0.21 ± 0.053.

Source of the values: the Human Domainome abundance scans (Beltran et al. 2025).
